This note sets out measurements from PMC4321091, “Recombinant Cyclodextrinase from Thermococcus kodakarensis KOD1: Expression, Purification, and Enzymatic Characterization” (Archaea, 2015).

For orientation: Km means the substrate concentration at which the rate is half of its maximum. For orientation: kcat means the number of substrate molecules converted per active site and unit of time at saturation.

Substrate in this data set: OC[C@H]1O[C@@H]2O[C@H]3[C@H](O)[C@@H](O)[C@@H](O[C@H]4[C@H](O)[C@@H](O)[C@@H](O[C@H]5[C@H](O)[C@@H](O)[C@@H](O[C@H]6[C@H](O)[C@@H](O)[C@@H](O[C@H]7[C@H](O)[C@@H](O)[C@@H](O[C@H]8[C@H](O)[C@@H](O)[C@@H](O[C@H]1[C@H](O)[C@H]2O)O[C@@H]8CO)O[C@@H]7CO)O[C@@H]6CO)O[C@@H]5CO)O[C@@H]4CO)O[C@@H]3CO
The data set is described as follows: purified protein. It is filed as biochemical, Thermococcus kodakarensis. Conditions: 20 mM Tris-HCl pH 7.5, 65°C, 1-10 mg/mL β-CD.

B1: CDase-Tk (Tk1770) (Thermococcus kodakarensis KOD1) (protein)
chain: MYKVFGFEENFIHGRVARVEFSLPDAGRWDYAYLLGNFNAFNEGSFRMKHEDKRWIIEIKLPEGLWRYAFSAGGEFLLDPENPEKELYRRPSYKFEREVSLAKIAGNDMVFHRPALLYLYSFGDRTHVLLRSKKGKVDAAYLVTDDTHVKMRKKADGEVFEYYEAVLQETEKLRYSFEVFLKEGKSLTLGPFEAAPFRLDAPSWILDRVFYQIMPDRFAKGRDHEPPFLSWEYYGGDLWGIVEKIDHLEELGVNALYLTPIFESMTYHGYDITDYLRVAERLGGEEAFRELVKALKSRDIKLVLDGVFHHTSFFHPFFRDVVERGEESEYADFYRVKGFPVVSEEFIRVLKSDLPPMEKYQTLKKMGWNYESFFSVWVMPRLNHDSPKVREFVARVMNYWLEKGADGWRLDVAHGVPPGFWREVREGLPDDAYLFGEVMDDPRLYLFGVFHGVMNYPLYDLLLRFFAFGEIGATEFINGIELLSAHLGPAEYFTYNFLDNHDTERFIDLAGKERYLCALTFLMTYKGIPAIFYGDEIGLRGSGEGMSAGRTPMSWDEEKWDFQILRQTMKLIELRRSLKSLQVGSFRVIGAGEKWFVYERKAGSERVLVGINCSWNDVETPVPSNGSNEQIKIPAFSSIIRVKDSMNVHIGSDLQE
notes: pET28a EcoRI/XhoI, E. coli BL21(DE3), DEAE purified
With B1, the Km amounted to 3.13 ± 0.47 mg/mL and the kcat was found to be 34.6 s⁻¹.
